The assay concerns the target fourth component of human complement (C'4) (human). The experiment in a line: sucrose density gradient ultracentrifugation.

For the substance “C'2 oxidized by treatment with a critical concentration of iodine (oxyC'2) (natural protein)”, the s rate of C'2 in mixtures with C'4 (pH 5) worked out at 7.7 S and the s rate of C'2 in mixtures with C'4 (pH 8) worked out at 13.5 S.

For the origin of these results see paper PMC2138355.
